Measurements: patent publication US20200291391A1, “CROSS-LINKED EPITOPES AND METHODS OF USE THEREOF” (Indi Molecular, Inc., priority 2019, published 2020)

Molecular target: human CD8α/β (human), P01732
Assay: ELISA on CD8αβ

Chain of human CD8α/β (human), P01732 (P01732 22-182, chain 1 of 2): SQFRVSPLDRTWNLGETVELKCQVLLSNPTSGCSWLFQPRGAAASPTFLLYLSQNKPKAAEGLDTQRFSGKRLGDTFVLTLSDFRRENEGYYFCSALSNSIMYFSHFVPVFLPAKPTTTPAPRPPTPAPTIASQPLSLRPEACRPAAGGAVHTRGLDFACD
Chain of human CD8α/β (human), P01732 (P10966 22-170, chain 2 of 2, further chain): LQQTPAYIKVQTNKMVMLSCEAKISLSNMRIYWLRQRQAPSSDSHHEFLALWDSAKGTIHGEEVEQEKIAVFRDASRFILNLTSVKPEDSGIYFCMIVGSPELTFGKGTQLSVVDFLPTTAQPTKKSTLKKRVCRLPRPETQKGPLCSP

KHYTN (modifications not checked) [khytn (SEQ ID NO:82)] was tested. Which EC50 did it give?
The EC50 was 6 µM.
